Results on 1 substance are retold here after US10864269B2, “Therapeutic combinations comprising anti-CD73 antibodies and uses thereof” (MedImmune Limited, priority 2014, dated 2020).

Experiment [1] deals with T1, murine CD73 (Mus musculus, UniProt Q61503).
T1 sequence (Q61503 29-551): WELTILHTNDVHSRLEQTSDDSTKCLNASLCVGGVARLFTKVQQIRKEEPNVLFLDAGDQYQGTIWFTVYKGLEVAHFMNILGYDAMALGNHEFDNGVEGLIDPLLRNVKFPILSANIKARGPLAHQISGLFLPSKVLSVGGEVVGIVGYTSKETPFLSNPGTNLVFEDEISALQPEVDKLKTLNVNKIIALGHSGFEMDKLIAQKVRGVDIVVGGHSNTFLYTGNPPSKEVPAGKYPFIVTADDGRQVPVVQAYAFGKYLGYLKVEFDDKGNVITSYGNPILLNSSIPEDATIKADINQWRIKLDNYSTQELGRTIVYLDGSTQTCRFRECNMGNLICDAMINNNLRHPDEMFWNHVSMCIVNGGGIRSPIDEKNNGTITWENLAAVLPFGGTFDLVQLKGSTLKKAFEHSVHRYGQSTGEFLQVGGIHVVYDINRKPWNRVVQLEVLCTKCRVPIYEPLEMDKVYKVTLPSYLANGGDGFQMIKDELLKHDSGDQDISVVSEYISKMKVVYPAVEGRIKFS
In words: Solution binding, murine CD73. The note with it: as measured by solution binding.

In experiment [2] the target is T2, Murine CD73 ECD (Mus musculus, UniProt Q61503).
T2 construct: made in house; host or cells: mammalian cells
T2 sequence (Q61503 29-551 limits assumed): T1 sequence (Q61503 29-551)
Put plainly: Surface plasmon resonance (ProteOn), murine CD73. The class given is binding. The settings on record: SPR. How it is done: A ProteOn XPR36 instrument was used to characterize binding of MEDI9447 to human, murine, and cynomolgus CD73 ECD. MEDI9447 was affinity-captured using an anti-human Fc antibody. CD73 ECD was in the mobile phase. The association and dissociation of CD73 to MEDI9447 could be accurately described with the Langmuir 1:1 model.
(§1) The affinity of enhanced anti-CD73 antibodies (in IgG1-TM format) to human, murine, and cynomolgus CD73 was determined by flow cytometry and surface plasmon resonsance (SPR) (Table 13). The enhanced antibodies had pM affinity to cellular and recombinant CD73 from the three species.
On the technique in general: In SPR one partner is held on a chip, and binding of the other changes the refractive index at the surface.

Experiment [3] concerns 4T1 cells. In words: FabZAP antibody internalization assay, 4T1. The class given is cell-based, murine. The note with it: 4T1, 3 days. How it is done: (§2) Internalization of MEDI9447 into cell lines MDA-MB-231 (human mammary carcinoma) and 4T1 (murine mammary carcinoma) was assessed using a human Antibody Internalization Kit that is sold commercially as the FabZAP assay (Advanced Targeting Systems, San Diego Calif.). Serial dilutions of MEDI9447 or negative control antibody R347 were pre-incubated with 40 nM FabZAP reagent (Fab fragment of a polyclonal anti-human IgG antibody conjugated to the cytotoxic protein saporin) and then added to the cell lines. After 3 days in culture, cell proliferation was measured using a luminescent cell viability assay sold commercially as the CELLTITER-GLO® assay (Promega, Madison Wis.). This assay was used to calculate EC50 values and maximum toxicity. […]
(§3) Cell proliferation of MDA-MB-231 cells and 4T1 cells treated with serial dilutions of test antibody and FabZAP reagent was measured by CELLTITER-GLO® assay (FIG. 2). The signal from the negative control antibody R347 in the CELLTITER-GLO® assay was subtracted from the signal of MEDI9447 and the EC50 value and maximum toxicity were calculated by fitting the dose-response curve using non-linear regression analysis.
(§4) 1,000 cells/well were cultured in 96 well plates in RPMI/10% FBS. […] After 3 days incubation at 37C, the cell proliferation was measured using the CELLTITER-GLO® assay (Promega, Madison Wis.).

In experiment [4] the test system is MDA-MB-231 cells. In words: FabZAP antibody internalization assay, MDA-MB-231. The class given is cell-based, human. The note with it: MDA-MB-231, 3 days. How it is done:
as §2, §3, §4

Experiment [5] has as its target T3, native CD73, MDA-MB-231 cells (Homo sapiens, UniProt P21589).
T3 construct: native CD73 expressed on human, murine, and cynomolgus monkey cell lines; endogenous in cells; host or cells: MDA-MB-231
T3 sequence (P21589 27-549): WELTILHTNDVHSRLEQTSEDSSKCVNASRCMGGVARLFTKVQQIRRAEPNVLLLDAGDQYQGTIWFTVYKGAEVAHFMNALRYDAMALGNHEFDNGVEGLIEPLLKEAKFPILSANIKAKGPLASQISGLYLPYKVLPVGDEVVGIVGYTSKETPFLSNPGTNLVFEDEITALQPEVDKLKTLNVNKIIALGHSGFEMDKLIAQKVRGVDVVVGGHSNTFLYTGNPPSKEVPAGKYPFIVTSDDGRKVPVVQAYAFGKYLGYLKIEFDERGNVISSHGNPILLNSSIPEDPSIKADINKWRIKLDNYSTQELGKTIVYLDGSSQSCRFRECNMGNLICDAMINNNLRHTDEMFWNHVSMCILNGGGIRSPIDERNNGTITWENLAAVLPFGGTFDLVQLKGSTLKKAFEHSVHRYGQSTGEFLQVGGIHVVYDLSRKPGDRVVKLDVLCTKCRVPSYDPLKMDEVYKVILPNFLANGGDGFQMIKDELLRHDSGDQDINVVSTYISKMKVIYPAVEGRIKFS
Put plainly: Flow cytometry binding to native CD73, MDA-MB-231 cells. How it is done:
Binding of MEDI9447 to native CD73 expressed on human, murine, and cynomolgus monkey cell lines was characterized by flow cytometry. The cells were incubated with various concentrations of MEDI9447 and antibody binding was monitored with and fluorophore-labeled anti-human Fc antibody. A plot of the median fluorescence intensity as a function of the MEDI9447 concentration was fitted nonlinearly using a one-site binding isotherm model to calculate the equilibrium dissociation constant.
as §1
All flow cytometry experiments were run at 4C and reagents were prepared in PBS/1% FBS buffer. 10,000 cells were incubated with test antibody in 50 uL volume for 4 hours. Cells were washed twice and incubated in 50 uL goat anti-human IgGFc-AlexaFluor647 conjugate for 15 minutes. Cells were washed, resuspended in buffer supplemented with Dapi, and analyzed on a flow cytometer. […] For the determination of KD values, a plot of the median fluorescence intensity as a function of test antibody concentration was fitted nonlinearly using a one site binding isotherm model.
For orientation: In flow cytometry, cells or beads pass a laser one at a time.

Broadly, the Kd is a measure of binding affinity in units of concentration.

On to “MEDI9447: IgG1 with CD730010-derived VL of SEQ ID NO: 68 and VH of SEQ ID NO: 82”, for which the Kd in experiment [1] is roughly 0.13 nM; in experiment [5] (as measured by flow cytometry, read-out: KD, CD73 on the surface of MB-MDA-231 cells), roughly 0.15 nM. The same substance came in with a ka in experiment [2] of 2.41e+06 M⁻¹ s⁻¹. In addition, in experiment [2], the kd came out at 2.32e-06 s⁻¹. In addition, the maximum toxicity in experiment [3] and in experiment [4] was 97% in each case. For the same substance, the “KD values by flow cytometry, fold greater than those determined by SPR” value in experiment [5] (human, murine and cynomolgus CD73) was 13—126 fold.
